# B1: ND6 (natural protein, Bos taurus (bovine), UniProt P03924 1-175, looked up)
# chain: MMLYIVFILSVIFVMGFVGFSSKPSPIYGGLGLIVSGGVGCGIVLNFGGSFLGLMVFLIYLGGMMVVFGYTTAMATEQYPEIWLSNKAVLGAFVTGLLMEFFMVYYVLKDKEVEVVFEFNGLGDWVIYDTGDSGFFSEEAMGIAALYSYGTWLVIVTGWSLLIGVVVIMEITRGN
# notes: ND6, core membrane subunit of respiratory complex I, Bos taurus; endogenous subunit of the purified enzyme
# B2: NDUFA8 (natural protein, Bos taurus (bovine), UniProt P42029 1-172, looked up)
# chain: MPGIVELPSLEDLKVQEVKVSSSVLKAAAHHYGAQCDKPNKEFMLCRWEEKDPRRCLEEGKLVNQCALEFFRQIKRHCAEPFTEYWTCIDYSGLQLFRRCRKQQAQFDECVLDKLGWVRPDLGDLSKVTKVKTDRPLPENPYHSRARPEPNPEVEGDLKPARHGSRLFFWTM
# notes: NDUFA8, supernumerary subunit of respiratory complex I, Bos taurus; endogenous subunit of the purified enzyme
# B3: NDUFA1 (natural protein, Bos taurus (bovine), UniProt Q02377 1-70, looked up)
# chain: MWFEVLPGIAVMGVCLFIPGMATARIHRFSNGGKEKRVAHYPYQWYLMERDRRVSGVNRSYVSKGLENID
# notes: NDUFA1, supernumerary subunit of respiratory complex I, Bos taurus; endogenous subunit of the purified enzyme
# B4: NDUFA13 (natural protein, Bos taurus (bovine), UniProt Q95KV7 1-144, looked up)
# chain: MAASKVKQDMPPVGGYGPIDYKRNLPRRGLSGYSMFAVGIGALLFGYWSMMKWNRERRRLQIEDFEARIALMPLLQAEKDRRVLQMLRENLEEEATVMKDVPGWKVGESVFHTTRWVTPMMGELYGLRASEEVLSATYGFIWYT
# notes: NDUFA13, supernumerary subunit of respiratory complex I, Bos taurus
# Target: T1, ND1 (Bos taurus (bovine), UniProt P03887 1-318)
# T1 construct: ND1, core membrane subunit of respiratory complex I (NADH:ubiquinone oxidoreductase), Bos taurus; endogenous subunit of the purified enzyme; also called subunit ND1
# Experiment: cryo-EM structure; bovine complex I purified in LMNG, reconstituted into proteoliposomes (DOPC:DOPE:cardiolipin 8:1:1, ubiquinone-10; 10 mM MOPS-KOH pH 7.5, 50 mM KCl), on graphene oxide grids; closed, open1 and open2 states, outward- and inward-facing; best map CI-out-closed 2.5 Å
# Conditions: both partners purified
# T1 sequence (P03887 whole entry): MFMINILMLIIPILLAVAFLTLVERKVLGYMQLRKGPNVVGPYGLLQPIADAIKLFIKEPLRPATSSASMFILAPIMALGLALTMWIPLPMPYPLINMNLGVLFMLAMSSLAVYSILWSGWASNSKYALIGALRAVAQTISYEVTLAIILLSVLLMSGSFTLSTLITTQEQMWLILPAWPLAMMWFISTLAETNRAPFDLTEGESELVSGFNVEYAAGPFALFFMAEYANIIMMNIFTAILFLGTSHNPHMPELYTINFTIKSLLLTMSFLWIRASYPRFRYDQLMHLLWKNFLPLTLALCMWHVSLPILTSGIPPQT
row,Binder,binding result
1,B1,binds
2,B2,binds
3,B3,binds
4,B4,binds

# — paper doi:10.1101/2023.12.14.571638, “Structural basis of a regulatory switch in mammalian complex I” (bioRxiv, 2023)
